Measurements from article PMC7660301, “Phe-140 Determines the Catalytic Efficiency of Arylacetonitrilase from Alcaligenes faecalis” (International Journal of Molecular Sciences, 2020).

Assays:
N#CCc1ccccc1 = experiment: ammonia release, Michaelis-Menten; type: biochemical, Alcaligenes faecalis; details: 50 mM buffer pH 7.5, 10% methanol, 30 °C, 0.5-30 mM substrate
Text: (§1) ammonia release, Michaelis-Menten on Arylacetonitrilase from Alcaligenes faecalis (NitAF)

[1] = target: T1, Arylacetonitrilase from Alcaligenes faecalis (NitAF) (Alcaligenes faecalis, UniProt P20960); experiment: ammonia release, Michaelis-Menten; type: biochemical; details: 50 mM buffer pH 7.5, 10% methanol, 30 °C, 0.5-30 mM substrate
T1 construct: full-length with C-terminal His6 tag (tag kept), vector pTrc99A-derived, E. coli BL21(DE3), Ni-NTA; 1071 bp, 357 amino acids printed; subunit about 32 kDa by SDS-PAGE, native about 460 kDa (homo-oligomer)
T1 sequence (P20960 whole entry): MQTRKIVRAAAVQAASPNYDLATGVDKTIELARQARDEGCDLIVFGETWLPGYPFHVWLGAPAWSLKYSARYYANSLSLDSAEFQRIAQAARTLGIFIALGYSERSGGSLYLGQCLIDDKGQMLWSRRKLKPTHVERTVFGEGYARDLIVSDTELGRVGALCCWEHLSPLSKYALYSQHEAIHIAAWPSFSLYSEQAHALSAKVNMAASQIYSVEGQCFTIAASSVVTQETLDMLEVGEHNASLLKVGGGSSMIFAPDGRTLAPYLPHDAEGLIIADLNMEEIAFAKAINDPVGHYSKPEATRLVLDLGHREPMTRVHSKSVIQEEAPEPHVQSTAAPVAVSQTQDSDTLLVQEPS
Text: as §1

| Compound | Km (N#CCc1ccccc1) [µM] | kcat (N#CCc1ccccc1) [s⁻¹] | kcat/Km (N#CCc1ccccc1) [M⁻¹ s⁻¹] | Km [1] [µM] |
| --- | --- | --- | --- | --- |
| Arylacetonitrilase from Alcaligenes faecalis (NitAF) (Alcaligenes faecalis; F140A) | 4200 ± 410 | 15.6 ± 1.2 | 3710 |  |
| Arylacetonitrilase from Alcaligenes faecalis (NitAF) (Alcaligenes faecalis; F140H) | 890 ± 100 | 63.5 ± 4.7 | 71400 |  |
| Arylacetonitrilase from Alcaligenes faecalis (NitAF) (Alcaligenes faecalis; F140W) | 1450 ± 120 | 143 ± 12 | 98600 |  |
| Arylacetonitrilase from Alcaligenes faecalis (NitAF) (Alcaligenes faecalis; F140L) | 2130 ± 210 | 38.8 ± 3.8 | 18200 |  |
| Arylacetonitrilase from Alcaligenes faecalis (NitAF) (Alcaligenes faecalis; F140V) | 2950 ± 320 | 25 ± 2.4 | 8480 |  |
| N#CCc1ccccc1 [phenylacetonitrile] |  |  |  | 860 ± 70 |
| Arylacetonitrilase from Alcaligenes faecalis (NitAF) (Alcaligenes faecalis; F140G) | 24100 ± 2200 |  |  |  |
